Measured values reported in the RNAGym collection of RNA variant scans (doi:10.1093/molbev/msab373).

B1: Azoarcus group I ribozyme (parent)
chain: GUGCCUUGCGCCGGGAAACCACGCAAGGGAUGGUGUCAAAUUCGGCGAAACCUAAGCGCCCGCCCGGGCGUAUGGCAACGCCGAGCCAAGCUUCGGCGCCUGCGCCGAUGAAGGUGUAGAGACUAGACGGCACCCACCUAAGGCAAACGCUAUGGUGAAGGCAUAGUCCAGGGAGUGGCGAAAGUCACACAAACCGG

Variants of: B1
Experiment: reverse-splicing fitness (ratio to wild type); higher = more active; in vitro selection; Mg2+ level not given
Method in brief: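 An in vitro group I ribozyme library with randomized positions was T7-transcribed and gel-purified. In triplicate, 10 pmol RNA in EPPS pH 7.5 was reacted with 50 pmoles of a 30-nt RNA substrate for 1 h at 37 °C across several added MgCl2 levels (1–48 mM), then stopped with EDTA. Products were reverse transcribed from a substrate-complementary primer, PCR-amplified and sequenced (HiSeq 4000). Fitness is a variant's read proportion after selection over that before, normalised to wild type.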

| Variant | reverse-splicing fitness |
| --- | --- |
| C82A A111G A145G C150A C169G U176G | 0.00702 |
| C82A A111G A145G C150A C169U | 0.0109 |
| C82A A111G A145G C150A C169U U176A | 0.0159 |
| C82A A111G A145G C150A C169U U176C | 0.0164 |
| C82A A111G A145G C150A C169U U176G | 0.00672 |
| C82A A111G A145G C150A U176A | 0.0293 |
| C82A A111G A145G C150A U176C | 0.0453 |
| C82A A111G A145G C150A U176G | 0.0122 |
| C82A A111G A145G C150G | 0.0329 |
| C82A A111G A145G C150G C169A | 0.0093 |
| C82A A111G A145G C150G C169A U176A | 0.0148 |
| C82A A111G A145G C150G C169A U176C | 0.0154 |
| C82A A111G A145G C150G C169A U176G | 0.00909 |
| C82A A111G A145G C150G C169G | 0.00786 |
| C82A A111G A145G C150G C169G U176A | 0.0112 |
| C82A A111G A145G C150G C169G U176C | 0.011 |
| C82A A111G A145G C150G C169G U176G | 0.00597 |
| C82A A111G A145G C150G C169U | 0.00932 |
| C82A A111G A145G C150G C169U U176A | 0.0112 |
| C82A A111G A145G C150G C169U U176C | 0.0123 |
| C82A A111G A145G C150G C169U U176G | 0.00825 |

| Variant | reverse-splicing fitness |
| --- | --- |
| C82A A111G A145G C150G U176A | 0.00955 |
| C82A A111G A145G C150G U176C | 0.0188 |
| C82A A111G A145G C150G U176G | 0.00721 |
| C82A A111G A145G C150U | 0.32 |
| C82A A111G A145G C150U C169A | 0.0115 |
| C82A A111G A145G C150U C169A U176A | 0.0167 |
| C82A A111G A145G C150U C169A U176C | 0.0181 |
| C82A A111G A145G C150U C169A U176G | 0.00696 |
| C82A A111G A145G C150U C169G | 0.0102 |
| C82A A111G A145G C150U C169G U176A | 0.0156 |
| C82A A111G A145G C150U C169G U176C | 0.0198 |
| C82A A111G A145G C150U C169G U176G | 0.00644 |
| C82A A111G A145G C150U C169U | 0.0135 |
| C82A A111G A145G C150U C169U U176A | 0.0138 |
| C82A A111G A145G C150U C169U U176C | 0.0135 |
| C82A A111G A145G C150U C169U U176G | 0.00655 |
| C82A A111G A145G C150U U176A | 0.115 |
| C82A A111G A145G C150U U176C | 0.174 |
| C82A A111G A145G C150U U176G | 0.0317 |
| C82A A111G A145G C169A | 0.0102 |
| C82A A111G A145G C169A U176A | 0.0201 |

| Variant | reverse-splicing fitness |
| --- | --- |
| C82A A111G A145G C169A U176C | 0.0253 |
| C82A A111G A145G C169A U176G | 0.00591 |
| C82A A111G A145G C169G | 0.00988 |
| C82A A111G A145G C169G U176A | 0.0194 |
| C82A A111G A145G C169G U176C | 0.0288 |
| C82A A111G A145G C169G U176G | 0.00515 |
| C82A A111G A145G C169U | 0.0126 |
| C82A A111G A145G C169U U176A | 0.0137 |
| C82A A111G A145G C169U U176C | 0.0149 |
| C82A A111G A145G C169U U176G | 0.00606 |
| C82A A111G A145G U176A | 0.184 |
| C82A A111G A145G U176C | 0.245 |
| C82A A111G A145G U176G | 0.0444 |
| C82A A111G A145U | 0.431 |
| C82A A111G A145U C150A | 0.0313 |
| C82A A111G A145U C150A C169A | 0.0101 |
| C82A A111G A145U C150A C169A U176A | 0.0124 |
| C82A A111G A145U C150A C169A U176C | 0.0106 |
| C82A A111G A145U C150A C169A U176G | 0.00674 |
| C82A A111G A145U C150A C169G | 0.00826 |
| C82A A111G A145U C150A C169G U176A | 0.0174 |

| Variant | reverse-splicing fitness |
| --- | --- |
| C82A A111G A145U C150A C169G U176C | 0.016 |
| C82A A111G A145U C150A C169G U176G | 0.00624 |
| C82A A111G A145U C150A C169U | 0.0106 |
| C82A A111G A145U C150A C169U U176A | 0.0132 |
| C82A A111G A145U C150A C169U U176C | 0.0109 |
| C82A A111G A145U C150A C169U U176G | 0.00627 |
| C82A A111G A145U C150A U176A | 0.0241 |
| C82A A111G A145U C150A U176C | 0.03 |
| C82A A111G A145U C150A U176G | 0.0106 |
| C82A A111G A145U C150G | 0.0319 |
| C82A A111G A145U C150G C169A | 0.00833 |
| C82A A111G A145U C150G C169A U176A | 0.0104 |
| C82A A111G A145U C150G C169A U176C | 0.0104 |
| C82A A111G A145U C150G C169A U176G | 0.00684 |
| C82A A111G A145U C150G C169G | 0.00749 |
| C82A A111G A145U C150G C169G U176A | 0.00771 |
| C82A A111G A145U C150G C169G U176C | 0.00567 |
| C82A A111G A145U C150G C169G U176G | 0.00584 |
| C82A A111G A145U C150G C169U | 0.00964 |
| C82A A111G A145U C150G C169U U176A | 0.00709 |
